Experimental findings from doi:10.1101/2024.06.16.598887 (bioRxiv, 2024) are described below.

Assay [1] has as its target T1, pig (Sus scrofa) skeletal muscle alpha-actin (pig (Sus scrofa), UniProt P68137 1-377). Nature of the assay: ITC. In general terms: In ITC the heat of successive injections is recorded.
Assay [2] deals with T1, pig (Sus scrofa) skeletal muscle …. Nature of the assay: ITC. The source holds these as a separate data set.

Where two headings read alike, the source gives them in different places.

B1: Anopheles gambiae actin depolymerizing factor (natural protein)
chain: MASGVTVSDVCKTTYEEIKKDKKHRYVIFYIRDEKQIDVEVIGDRNAEYDSFLEDIQKGGPGECRYGLFDFEYMHQCQGTSESSKKQKLFLMSWCPDTAKVKKKMLYSSSFDALKKSLVGVQKYIQATDLSEASREAVEEKLRATDRQ
In the case of B1, in assay [1], the Kd (usually the equilibrium constant for the complex coming apart) turned out to be 1.6 nM and the dH is -14.1 ± 0.1 kcal/mol. In assay [2], the Kd was 0.8 nM; the dH was -13.6 ± 0.1 kcal/mol; the stoichiometry N (in general, a count of units in the complex or per binding partner) is ~1.
